The record followed here is US7026443.

This assay deals with HLA-A*6802 (human). The assay can be described thus: competition with 125I-labelled standard peptide on purified HLA, gel filtration. In general terms: Size exclusion chromatography separates by hydrodynamic size, large species first.

For HPV16 E7 86 TLGIVCPI (peptide), the binding affinity ratio (IC50 of standard peptide / IC50 of test peptide) stood at 0.0047.
